By Kd is commonly meant the constant that tells how readily two partners part at equilibrium. Broadly, the EC50 (read off the curve) is the midpoint of the concentration-response curve. Read a high EC50 (read off the curve) as weaker potency.

The text below walks through data of US20150307616A1 (APEXIGEN, published 2015).

One assay has as its target T1, human CD40 (human, UniProt P25942 21-193, limits assumed).
T1 construct: also called immobilized human CD40
Briefly: method not stated.

Assay [1] addresses T2, mouse CD40 on mouse A20 cells (mouse, UniProt P27512 20-289).
T2 construct: whole, on cells; also called A20 cell line which expresses mouse CD40
Briefly: FACS on mouse A20 cells, goat anti-human IgG (H+L)-R-PE. Here is the method: Cross-reactivity of APX005 with mouse CD40 was further determined by FACS binding to a mouse A20 cell line which expresses mouse CD40. An aliquot of 0.5×10⁶ A20 cells was added to 96 well plates and incubated with 100 μl diluted rat anti-mouse CD40 antibody conjugated with PE, APX005 or IgG1 control antibodies. After washing, 100 μl Goat-anti human IgG (H+L) conjugated with R-PE (Southern Biotech CAT#2040-09) were added at 1:200 dilution in PBS to the sample and incubated for detection of APX005 and control human IgG1. A rat anti-mouse CD40 antibody conjugated with PE was used as positive control. Samples were re-suspended with 0.5 ml PBS and analyzed by FACS.

Assay [2] addresses T3, human CD40 on the cell surface (human, UniProt P25942 21-277).
T3 construct: whole, on cells; also called cell surface CD40; CD40 on Ramos cells
Briefly: FACS on Ramos cells, 4 h at 37 C, Alexa 488 goat anti-human IgG. Here is the method: (§1) In order to assess the target mediated-internalization of APX005 for evaluating its impact on ADCC activity, Ramos cells were incubated with APX005 for 4 h at 37° C., a temperature permissive for internalization, or at 4° C. for 30 minutes, a temperature at which internalization is minimized. Cells were washed with staining buffer, followed by incubation with Alexa 488 labeled goat anti-human IgG for an additional 30 minutes at 4° C. FACS analysis was performed to examine the level of APX005 on the cell surface.

For assay [3], the target named is T3, human CD40 on the cell surface. Briefly: FACS on Ramos cells, 30 minutes at 4 C, Alexa 488 goat anti-human IgG. Here is the method: as §1
In assay [4] the target is T4, mouse CD40 (coated protein) (mouse, UniProt P27512 20-193, limits assumed).
T4 construct: Coated at 1 µg/ml on ELISA plates
T4 sequence (P27512 20-193 limits assumed): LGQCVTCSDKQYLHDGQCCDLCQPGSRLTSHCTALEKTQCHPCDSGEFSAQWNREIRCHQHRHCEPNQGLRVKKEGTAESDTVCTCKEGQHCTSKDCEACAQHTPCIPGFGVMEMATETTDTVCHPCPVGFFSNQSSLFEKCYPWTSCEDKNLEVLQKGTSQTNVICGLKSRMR
The assay is described as follows: direct ELISA by the text (1 ug/ml CD40 coated, goat anti-human IgG-HRP); the axis of the sheet is labelled MFI. Here is the method: Cross-reactivity was assessed by direct ELISA. A total of 1 μg/ml of human CD40, monkey CD40 or mouse CD40 was coated on ELISA plates followed by incubation with […] of APX005 or control IgG1. Antibodies bound to CD40 were detected using goat anti-human IgG conjugated with HRP. APX005 clearly crossreacts with monkey CD40 but not mouse CD40. (FIG. 11A)

T3 sequence (P25942 21-277): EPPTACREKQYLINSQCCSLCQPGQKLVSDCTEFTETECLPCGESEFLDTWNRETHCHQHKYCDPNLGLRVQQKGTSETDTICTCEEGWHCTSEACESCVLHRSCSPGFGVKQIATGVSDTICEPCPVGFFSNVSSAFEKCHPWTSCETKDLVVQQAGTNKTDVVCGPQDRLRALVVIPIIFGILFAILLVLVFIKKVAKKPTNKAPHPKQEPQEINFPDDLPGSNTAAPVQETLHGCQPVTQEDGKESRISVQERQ
T2 sequence (P27512 20-289): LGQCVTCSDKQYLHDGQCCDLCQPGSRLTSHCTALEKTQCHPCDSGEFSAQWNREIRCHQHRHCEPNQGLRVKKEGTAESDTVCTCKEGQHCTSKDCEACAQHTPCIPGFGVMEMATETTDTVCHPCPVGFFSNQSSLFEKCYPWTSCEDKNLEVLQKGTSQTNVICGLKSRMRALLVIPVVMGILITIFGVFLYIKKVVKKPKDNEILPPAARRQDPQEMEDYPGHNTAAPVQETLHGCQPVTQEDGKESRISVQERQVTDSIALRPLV
T1 sequence (P25942 21-193 limits assumed): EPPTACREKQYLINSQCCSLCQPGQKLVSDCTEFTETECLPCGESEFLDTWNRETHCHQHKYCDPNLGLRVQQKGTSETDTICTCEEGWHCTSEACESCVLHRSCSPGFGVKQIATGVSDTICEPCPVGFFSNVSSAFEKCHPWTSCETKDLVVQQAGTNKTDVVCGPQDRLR

B1: APX005 humanized anti-CD40 antibody (antibody, IgG1, V domains shown)
VH: QVQLVESGGGVVQPGRSLRLSCAASGFSFSSTYVCWVRQAPGKGLEWIACIYTGDGTNYSASWAKGRFTISKDSSKNTVYLQMNSLRAEDTAVYFCARPDITYGFAINFWGPGTLVTVSS
VL: DIQMTQSPSSLSASVGDRVTIKCQASQSISSRLAWYQQKPGKPPKLLIYRASTLASGVPSRFSGSGSGTDFTLTISSLQPEDVATYYCQCTGYGISWPIGGGTKVEIK
notes: also called humanized R-8
In the case of B1, the dissociation constant Kd with human CD40 was determined as 0.96 nM. The results for the binding result in assay [1] and in assay [4] were “no binding (tested: 10000 ng/ml)” and “no binding”, respectively. Moreover, the “EC50 (read off the curve)” value in assay [2] and in assay [3] was about 0.05 µg/mL each time.
